This data set concerns the molecule itself. The data set can be described thus: cryo-EM structure; purified MRS2 at about 0.5 mg/ml in 20 mM HEPES, 150 mM NaCl, 40 mM MgCl2, 0.003% LMNG, pH 7.3; C5 and C1 reconstructions.

We go through one protein from paper PMC10632456, “Cryo-EM structures of human magnesium channel MRS2 reveal gating and regulatory mechanisms” (Nature Communications, 2023).

B1: human MRS2 (Mitochondrial RNA Splicing 2 magnesium channel) (natural protein, UniProt Q9HD23 71-443, looked up)
chain: TSDVSQATLASVAPVFTVTKFDKQGNVTSFERKKTELYQELGLQARDLRFQHVMSITVRNNRIIMRMEYLKAVITPECLLILDYRNLNLEQWLFRELPSQLSGEGQLVTYPLPFEFRAIEALLQYWINTLQGKLSILQPLILETLDALVDPKHSSVDRSKLHILLQNGKSLSELETDIKIFKESILEILDEEELLEELCVSKWSDPQVFEKSSAGIDHAEEMELLLENYYRLADDLSNAARELRVLIDDSQSIIFINLDSHRNVMMRLNLQLTMGTFSLSLFGLMGVAFGMNLESSLEEDHRIFWLITGIMFMGSGLIWRRLLSFLGRQLEAPLPPMMASLPKKTLLADRSMELKNSLRLDGLGSGRSILTNR
notes: MRS2, human, UniProt Q9HD23; The full-length precursor was expressed; No step that removes the tag is described; also called HsMRS2; MRS2-Mg2+
For B1, the “stoichiometry N” value was 5.

By stoichiometry N is commonly meant a count of units in the complex or per binding partner.
